This note sets out measurements from patent US20240376221A1 (Genmab, published 2024).

Read-outs that look alike come from different tables or passages of the source.

Test [1] has as its target T1, recombinant cynomolgus monkey OX40 (Acro Biosystems, cat. no. OXO-C5220) (cynomolgus monkey, UniProt P43489 29-216 (human entry), limits assumed).
T1 construct: bought soluble protein; also called Cyno OX40
T1 chain: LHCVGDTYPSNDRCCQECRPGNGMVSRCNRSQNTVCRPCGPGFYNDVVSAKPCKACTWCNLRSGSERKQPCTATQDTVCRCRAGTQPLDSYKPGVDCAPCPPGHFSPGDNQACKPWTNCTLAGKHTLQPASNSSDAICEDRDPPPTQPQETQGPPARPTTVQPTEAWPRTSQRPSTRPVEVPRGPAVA
Nature of the test: BLI, Ab on AHC sensor, OX40 analyte. The procedure: (§1) Experiments were carried out while shaking at 1,000 RPM at 30° C. […] Next, AHC sensors were loaded with antibody (1 μg/mL in Sample Diluent) for 600 s. After a baseline measurement in sample diluent (100 s), the association (200 s) and dissociation (1,000 s) of human OX40 (Acro Biosystems, cat. no. OXO-H5224), and cynomolgus monkey OX40 (Acro Biosystems, cat. no. OXO-C5220) was determined using a concentration range of 0.78 to 800 nM with 2-fold dilution steps.
(§2) Data were acquired using Data Acquisition Software v12.0 (Sartorius) and analyzed with Data Analysis Software v12.0 (Sartorius). Data traces were corrected per antibody by subtraction of the reference sensor. The Y-axis was aligned to the last 10 s of the baseline and Interstep Correction alignment to dissociation as well as Savitzky-Golay filtering were applied. Data traces with a response<0.05 nm were excluded from analysis. […] The data was fitted with the 1:1 model using a window of interest for the association of 200 s and dissociation times set at 50 s, 200 s and 1,000 s. The dissociation time was chosen based upon R² value, visual inspection of the curve and at least 5% signal decay during the dissociation step.

In test [2] the target is T2, His-tagged human recombinant FcγRIa (human, UniProt P12314 16-288).
T2 construct: bought; also called FcγRIa (SPR); not shown: His-tag
Nature of the test: SPR, His-tagged FcγRIa captured on an anti-His chip, antibody injected. The procedure: (§3) Biacore Series S Sensor Chips CM5 (Cytiva, cat. no. 29104988) were covalently coated with anti-His antibody using amine-coupling and His capture kits (Cytiva, cat. no. BR100050 and cat. no. 29234602) according to the manufacturer's instructions. […] After three start-up cycles of HBS-EP+ buffer, antibody samples were injected for 12 cycles per sample to generate binding curves using antibody concentration ranges of 0 to 3,000 nM for FcγRIa and 0 to 10,000 nM for the other FcγRs. […] Dissociation from the anti-His-coated surface was performed by regeneration of the surface using 10 mM Glycine-HCl pH 1.5 (Cytiva, cat. no. BR100354).
For orientation: SPR reads the build-up and loss of mass on a sensor chip optically.

Test [3] addresses T3, His-tagged human recombinant FcγRIIIa 176-Val (human, UniProt P08637 17-208).
T3 construct: bought; also called FcγRIIIa[V]; not shown: His-tag
In words: SPR, His-tagged FcγRIIIa[V] captured on an anti-His chip, antibody injected. Here is the method: as §3

Test [4] deals with T4, His-tagged human recombinant FcγRIIa 167-His (human, UniProt P12318 34-218).
T4 construct: bought; also called FcγRIIa[H]; not shown: His-tag
T4 sequence (looked up): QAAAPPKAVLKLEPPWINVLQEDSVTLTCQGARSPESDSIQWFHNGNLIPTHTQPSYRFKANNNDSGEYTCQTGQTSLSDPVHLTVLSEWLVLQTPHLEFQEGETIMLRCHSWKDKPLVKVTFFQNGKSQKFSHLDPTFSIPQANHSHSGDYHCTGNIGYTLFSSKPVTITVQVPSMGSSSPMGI
Nature of the test: SPR, His-tagged FcγRIIa[H] captured on an anti-His chip, antibody injected. Here is the method: as §3

Test [5] deals with T5, His-tagged human recombinant FcγRIIb (human, UniProt P31994 43-217).
T5 construct: bought; also called FcγRII2b [sic]; not shown: His-tag
T5 sequence (looked up): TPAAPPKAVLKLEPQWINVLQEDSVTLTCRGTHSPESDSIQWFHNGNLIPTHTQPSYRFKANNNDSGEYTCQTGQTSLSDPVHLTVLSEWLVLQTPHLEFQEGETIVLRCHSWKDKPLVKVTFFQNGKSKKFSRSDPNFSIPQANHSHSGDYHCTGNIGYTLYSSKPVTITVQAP
In words: SPR, His-tagged FcγRIIb captured on an anti-His chip, antibody injected. Here is the method:
as §3

Test [6] has as its target T2, His-tagged human recombinant FcγRIa. Nature of the test: SPR, His-tagged FcγRIa captured on an anti-His chip, antibody injected. Here is the method: as §3
This is another data set of the same source.

Test [7] addresses T6, His-tagged human recombinant FcγRIIIa 176-Phe (human, UniProt P08637 17-208).
T6 construct: bought; also called FcγRIIIa[F]; not shown: His-tag
In words: SPR, His-tagged FcγRIIIa[F] captured on an anti-His chip, antibody injected. The procedure: as §3

The target of test [8] is T7, His-tagged human recombinant FcγRIIa 167-Arg (human, UniProt P12318 34-218).
T7 construct: bought; also called FcγRIIa[R]; not shown: His-tag
T7 sequence (looked up): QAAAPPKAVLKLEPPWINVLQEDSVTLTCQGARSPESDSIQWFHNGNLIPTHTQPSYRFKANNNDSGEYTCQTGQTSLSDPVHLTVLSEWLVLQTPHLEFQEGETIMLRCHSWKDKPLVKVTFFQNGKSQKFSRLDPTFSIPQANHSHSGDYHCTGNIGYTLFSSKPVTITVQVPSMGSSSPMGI
Nature of the test: SPR, His-tagged FcγRIIa[R] captured on an anti-His chip, antibody injected. Here is the method: as §3

Test [9] addresses T8, human FcγRIa, cell surface-expressed (human, UniProt P12314 16-374).
T8 construct: whole, on cells; also called CD64; FcγR1a on ExpiCHO-S cells
Nature of the test: flow cytometry, ExpiCHO-S cells transfected with human FcγRIa. (In flow cytometry, cells or beads pass a laser one at a time.)

The target in test [10] is T1, recombinant cynomolgus monkey OX40 …. Nature of the test: BLI, Ab on AHC sensor, OX40 analyte; * binding observed, less reliable fit. Here is the method: as §1, §2
On the technique in general: Biolayer interferometry detects binding as a change in optical thickness at a sensor tip.

T8 sequence (P12314 16-374): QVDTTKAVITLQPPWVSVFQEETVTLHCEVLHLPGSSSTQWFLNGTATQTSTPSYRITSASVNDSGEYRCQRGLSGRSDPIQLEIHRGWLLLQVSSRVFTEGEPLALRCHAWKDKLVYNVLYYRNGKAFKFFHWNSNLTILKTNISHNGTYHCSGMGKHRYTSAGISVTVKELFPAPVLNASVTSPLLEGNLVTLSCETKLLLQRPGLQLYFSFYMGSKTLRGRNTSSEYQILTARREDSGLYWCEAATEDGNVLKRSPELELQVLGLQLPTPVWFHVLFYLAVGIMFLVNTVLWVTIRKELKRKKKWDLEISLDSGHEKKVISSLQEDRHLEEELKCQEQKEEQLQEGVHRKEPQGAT
T2 sequence (P12314 16-288 limits assumed): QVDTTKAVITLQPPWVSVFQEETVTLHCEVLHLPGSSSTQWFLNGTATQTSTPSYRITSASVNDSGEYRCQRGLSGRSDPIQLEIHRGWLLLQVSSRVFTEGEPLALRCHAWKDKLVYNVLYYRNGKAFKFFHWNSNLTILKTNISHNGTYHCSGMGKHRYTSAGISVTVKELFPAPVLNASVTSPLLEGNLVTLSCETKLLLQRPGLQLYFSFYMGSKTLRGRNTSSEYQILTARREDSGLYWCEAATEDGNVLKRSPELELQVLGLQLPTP
T6 sequence (P08637 17-208 limits assumed): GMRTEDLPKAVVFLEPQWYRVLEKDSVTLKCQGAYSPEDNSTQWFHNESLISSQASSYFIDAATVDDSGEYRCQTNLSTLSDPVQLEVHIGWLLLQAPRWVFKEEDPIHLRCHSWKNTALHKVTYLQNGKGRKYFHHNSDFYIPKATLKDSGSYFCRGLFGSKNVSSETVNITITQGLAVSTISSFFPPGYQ
T3 sequence (P08637 17-208 F176V limits assumed): as the sequence (P08637 17-208 limits assumed) above, with F160V counted along it

B1: IgG1-CD134-007 (antibody)
heavy: not shown
light: AQVLTQTPSPVSAAVGGTVTISCQSSESVWNNNWLAWYQQKPGQPPNLLIYEASTLASGVSSRFKGSGSGTQFTLTVSEVQSDDAATYYCQGGYYDSSPIWTFGGGTEVVVKRTVAAPSVFIFPPSDEQLKSGTASVVCLLNNFYPREAKVQWKVDNALQSGNSQESVTEQDSKDSTYSLSSTLTLSKADYEKHKVYACEVTHQGLSSPVTKSFNRGEC
notes: rabbit-human chimeric IgG1
By Kd is commonly meant the concentration at which binding is half-saturated. As usually defined, the koff is the first-order rate constant of dissociation. As a reminder, the kon is the second-order rate constant of association. As to B1, in test [1], the Kd worked out at 7.1 nM, the koff is 0.0018 s⁻¹ and the kon is 260000 M⁻¹ s⁻¹.

B2: IgG1-b12 (antibody)
heavy: not shown
VL: EIVLTQSPGTLSLSPGERATFSCRSSHSIRSRRVAWYQHKPGQAPRLVIHGVSNRASGISDRFSGSGSGTDFTLTITRVEPEDFALYYCQVYGASSYTFGQGTKLERK
notes: wild-type Fc domain; also called anti-HIV gp120 antibody IgG1-b12
What is called EC50 (read off the curve) is the midpoint of the concentration-response curve. B2: the “EC50 (read off the curve)” value is ~20 nM in test [2] and ~30 nM in test [6]. Moreover, the binding result in test [3], in test [4], in test [5], in test [7] and in test [8] was “binds” each time.

B3: IgG1-CD134-003 (antibody)
heavy: not shown
light: AAVLTQTPSPVSAAVGGTVTIKCQSSQIVVNNNFLSWYQQKPGQPPKLLIYDASNLASGVPDRFSGSGSGTQFTLTISGVQSDDAATYYCLGGYDDDAENAFGGGTEVVVQRTVAAPSVFIFPPSDEQLKSGTASVVCLLNNFYPREAKVQWKVDNALQSGNSQESVTEQDSKDSTYSLSSTLTLSKADYEKHKVYACEVTHQGLSSPVTKSFNRGEC
notes: rabbit-human chimeric, wild-type IgG1 Fc
As for B3, in test [9], the “EC50 (read off the curve)” value was ~0.7 µg/mL. Also, in test [1], the Kd is 3.5 nM, the koff was 0.00096 s⁻¹ and the kon was 280000 M⁻¹ s⁻¹.

B4: IgG1-CD134-003-HC6LC2 (antibody)
heavy: not shown
light: AAVLTQSPSSLSASVGDRVTITCQSSQIVVNNNFLSWYQQKPGKAPKLLIYDASNLASGVPDRFSGSGSGTDFTFTISSLQPEDIATYYCLGGYDDDAENAFGGGTKVEIKRTVAAPSVFIFPPSDEQLKSGTASVVCLLNNFYPREAKVQWKVDNALQSGNSQESVTEQDSKDSTYSLSSTLTLSKADYEKHKVYACEVTHQGLSSPVTKSFNRGEC
notes: variant of m1 without Fc mutations
For B4, in test [9], the binding result was “binds”.

B5: IgG1-CD134-003-HC6LC2-P329R-E345R (antibody)
heavy: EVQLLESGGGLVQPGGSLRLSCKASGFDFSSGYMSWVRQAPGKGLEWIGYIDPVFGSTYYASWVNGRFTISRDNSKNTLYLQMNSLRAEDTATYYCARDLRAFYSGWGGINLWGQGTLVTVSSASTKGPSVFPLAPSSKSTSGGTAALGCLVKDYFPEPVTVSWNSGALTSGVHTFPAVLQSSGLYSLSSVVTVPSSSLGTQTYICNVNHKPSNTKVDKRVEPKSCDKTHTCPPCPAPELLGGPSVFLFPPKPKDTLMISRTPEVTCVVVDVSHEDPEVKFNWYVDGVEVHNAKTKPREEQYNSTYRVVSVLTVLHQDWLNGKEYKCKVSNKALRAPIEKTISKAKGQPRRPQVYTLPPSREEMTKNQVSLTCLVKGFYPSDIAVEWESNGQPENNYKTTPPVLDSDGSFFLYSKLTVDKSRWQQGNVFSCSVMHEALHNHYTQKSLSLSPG
light: AAVLTQSPSSLSASVGDRVTITCQSSQIVVNNNFLSWYQQKPGKAPKLLIYDASNLASGVPDRFSGSGSGTDFTFTISSLQPEDIATYYCLGGYDDDAENAFGGGTKVEIKRTVAAPSVFIFPPSDEQLKSGTASVVCLLNNFYPREAKVQWKVDNALQSGNSQESVTEQDSKDSTYSLSSTLTLSKADYEKHKVYACEVTHQGLSSPVTKSFNRGEC
notes: humanized; human IgG1 with P329R and E345R (Eu); also called IgG1-CD134-003-HC6LC2-RR
In the case of B5, in test [1], the dissociation constant (Kd) is 27 nM, the koff was 0.0029 s⁻¹ and the kon was 110000 M⁻¹ s⁻¹.

B6: IgG1-CD134-012 (antibody)
heavy: not shown
light: DIVMTQTPASVEAAVGGTVTIKCQASENIYSSLAWYQQKPGQPPKLLIYRTSTLASGVPSRFKGSGSGTQFTLTISDLESDDAATYYCQSYYHNSGGGYDYGFGGGTEVVAKRTVAAPSVFIFPPSDEQLKSGTASVVCLLNNFYPREAKVQWKVDNALQSGNSQESVTEQDSKDSTYSLSSTLTLSKADYEKHKVYACEVTHQGLSSPVTKSFNRGEC
notes: rabbit-human chimeric IgG1
B6: in test [10], the Kd was 180 nM, the koff stood at 0.018 s⁻¹ and the kon stood at 98000 M⁻¹ s⁻¹.
